Assay [1] deals with T1, mouse FcγRII extracellular domain, C-terminal His tag (mouse, UniProt P08101 30-210).
T1 construct: Whole entry named; also called mFcγRII; mFcgRII
T1 sequence: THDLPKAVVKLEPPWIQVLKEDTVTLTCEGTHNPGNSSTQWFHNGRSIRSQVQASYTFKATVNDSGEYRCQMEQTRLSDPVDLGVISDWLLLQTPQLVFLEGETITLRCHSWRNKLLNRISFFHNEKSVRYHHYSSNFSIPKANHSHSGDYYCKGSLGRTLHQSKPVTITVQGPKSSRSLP
Briefly: SPR (Biacore T200); KD of H237-MB716/MRAL-k0 / KD of variant. An excerpt:
(§1) The antibody H chain variable region used was the variable region H237 (SEQ ID NO: 1) of the H chain VH3-IgG1 of the anti-IL-6 receptor antibody Fv4-IgG1 described in WO2009/125825. The antibody L chain commonly used was the L chain MRAL-k0 (SEQ ID NO: 2) of the anti-IL-6 receptor antibody tocilizumab. H237-MB716/MRAL-k0 was used as a template to introduce the alterations. These variants were expressed and purified by the method of Reference Example 1 and evaluated for their binding to mFcγRII and mFcγRIII by the method of Reference Example 2 using Biacore T200.
(§2) Each altered antibody was analyzed for its interaction with each Fcγ receptor prepared above using Biacore T100 (GE Healthcare Japan Corp.), Biacore T200 (GE Healthcare Japan Corp.), Biacore A100, or Biacore 4000. The running buffer used was HBS-EP+ (GE Healthcare Japan Corp.). The assay temperature was set to 25° C. The sensor chips used were chips prepared by immobilizing Protein L (ACTIGEN or BioVision) onto Series S Sensor Chip CM5 (GE Healthcare Japan Corp.) or Series S Sensor Chip CM4 (GE Healthcare Japan Corp.) by the amine coupling method.
For orientation: SPR reads the build-up and loss of mass on a sensor chip optically.

In assay [2] the target is T2, mouse FcγRIII extracellular domain, C-terminal His tag (mouse, UniProt P08508 31-215).
T2 construct: Whole entry named; also called mFcγRIII; mFcgRIII
T2 chain: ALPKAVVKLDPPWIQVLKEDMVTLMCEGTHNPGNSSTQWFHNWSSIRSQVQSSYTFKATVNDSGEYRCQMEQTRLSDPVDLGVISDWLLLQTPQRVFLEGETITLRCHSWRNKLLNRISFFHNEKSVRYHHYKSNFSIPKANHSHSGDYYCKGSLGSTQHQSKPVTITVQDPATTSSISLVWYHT
Described as above.
Text: as §1, §2

Assay [3] addresses T1, mouse FcγRII extracellular domain, …. Put plainly: SPR (Biacore T200); KD of H237-mIgG1/MRAL-k0 / KD of variant.
Text: as §1, §2

Assay [4] deals with T2, mouse FcγRIII extracellular domain, …. Described as above.
Text: as §1, §2

The values below come from patent US20150203577A1 (Chugai, published 2015).

B1: H237-MB868/MRAL-k0 (antibody, mouse IgG1, kappa)
heavy: QVQLQESGPGLVKPSETLSLTCAVSGHSISHDHAWSWVRQPPGEGLEWIGFISYSGITNYNPSLQGRVTISRDNSKNTLYLQMNSLRAEDTAVYYCARSLARTTAMDYWGEGTLVTVSSAKTTPPSVYPLAPGSAAQTNSMVTLGCLVKGYFPEPVTVTWNSGSLSSGVHTFPAVLQSDLYTLSSSVTVPSSTWPSETVTCNVAHPASSTKVDKKIVPRDCGCKPCICEPNEVEIVFIFPPKPKDVLTITLTPKVTCVVVDISDDDPEVQFSWFVDDVEVHTAQTQPREEQFNSTFRSVSELPIMHQDWLNGKEFKCRVDSDGFPAPIEKTISKTKGRPKAPQVYTIPPPKEQMAKDKVSLTCMITDFFPEDITVEWQWNGQPAENYKNTQPIMDTDGSYFVYSKLNVQKSNWEAGNTFTCSVLHEGLHNHHTEKSLSHSPGK
light: not shown
notes: copies: 2 + 2
Turning to B1, in assay [1], the “relative mFcγRII-binding activity (MB716 = 1)” value stood at 8.4 fold. In addition, in assay [2], the “relative mFcγRIII-binding activity (MB716 = 1)” value was 14.4 fold. The “relative mFcγRII-binding activity (mIgG1 = 1)” value in assay [3] is 36.6 fold. In addition, the “relative mFcγRIII-binding activity (mIgG1 = 1)” value in assay [4] stood at 0.86 fold.

B2: H237-MB869/MRAL-k0 (antibody, mouse IgG1, kappa)
heavy: QVQLQESGPGLVKPSETLSLTCAVSGHSISHDHAWSWVRQPPGEGLEWIGFISYSGITNYNPSLQGRVTISRDNSKNTLYLQMNSLRAEDTAVYYCARSLARTTAMDYWGEGTLVTVSSAKTTPPSVYPLAPGSAAQTNSMVTLGCLVKGYFPEPVTVTWNSGSLSSGVHTFPAVLQSDLYTLSSSVTVPSSTWPSETVTCNVAHPASSTKVDKKIVPRDCGCKPCICEPNEVEIVFIFPPKPKDVLTITLTPKVTCVVVDISDDDPEVQFSWFVDDVEVHTAQTQPREEQFNSTFRSVSELPIMHQDWLNGKEFKCRVNSDGFPAPIYKTISKTKGRPKAPQVYTIPPPKEQMAKDKVSLTCMITDFFPEDITVEWQWNGQPAENYKNTQPIMDTDGSYFVYSKLNVQKSNWEAGNTFTCSVLHEGLHNHHTEKSLSHSPGK
light: not shown
notes: copies: 2 + 2
For B2, the “relative mFcγRII-binding activity (MB716 = 1)” value in assay [1] amounted to 9.4 fold. The “relative mFcγRIII-binding activity (MB716 = 1)” value in assay [2] was determined as 15.8 fold. Also, in assay [3], the “relative mFcγRII-binding activity (mIgG1 = 1)” value stood at 41 fold. Besides, the “relative mFcγRIII-binding activity (mIgG1 = 1)” value in assay [4] came out at 0.94 fold.

B3: H237-MB871/MRAL-k0 (antibody, mouse IgG1, kappa)
heavy: QVQLQESGPGLVKPSETLSLTCAVSGHSISHDHAWSWVRQPPGEGLEWIGFISYSGITNYNPSLQGRVTISRDNSKNTLYLQMNSLRAEDTAVYYCARSLARTTAMDYWGEGTLVTVSSAKTTPPSVYPLAPGSAAQTNSMVTLGCLVKGYFPEPVTVTWNSGSLSSGVHTFPAVLQSDLYTLSSSVTVPSSTWPSETVTCNVAHPASSTKVDKKIVPRDCGCKPCICEPNEVEIVFIFPPKPKDVLTITLTPKVTCVVVDISDDDPEVQFSWFVDDVEVHTAQTQPREELFNSTFRSVSELPIMHQDWLNGKEFKCRVNSDGFPAPIEKTISKTKGRPKAPQVYTIPPPKEQMAKDKVSLTCMITDFFPEDITVEWQWNGQPAENYKNTQPIMDTDGSYFVYSKLNVQKSNWEAGNTFTCSVLHEGLHNHHTEKSLSHSPGK
light: not shown
notes: copies: 2 + 2
For the molecule B3, in assay [1], the “relative mFcγRII-binding activity (MB716 = 1)” value was 14.2 fold. The “relative mFcγRIII-binding activity (MB716 = 1)” value in assay [2] stood at 28.2 fold. Besides, the “relative mFcγRII-binding activity (mIgG1 = 1)” value in assay [3] was determined as 61.8 fold. Further, in assay [4], the “relative mFcγRIII-binding activity (mIgG1 = 1)” value came out at 1.67 fold.

B4: H237-MB870/MRAL-k0 (antibody, mouse IgG1, kappa)
heavy: QVQLQESGPGLVKPSETLSLTCAVSGHSISHDHAWSWVRQPPGEGLEWIGFISYSGITNYNPSLQGRVTISRDNSKNTLYLQMNSLRAEDTAVYYCARSLARTTAMDYWGEGTLVTVSSAKTTPPSVYPLAPGSAAQTNSMVTLGCLVKGYFPEPVTVTWNSGSLSSGVHTFPAVLQSDLYTLSSSVTVPSSTWPSETVTCNVAHPASSTKVDKKIVPRDCGCKPCICEPNEVEIVFIFPPKPKDVLTITLTPKVTCVVVDISDDDPEVQFSWFVDDVEVHTAQTQPREEQFNSTFRSVSELPIMHQDWLNGKEFKCRVNSDGFPAPIERTISKTKGRPKAPQVYTIPPPKEQMAKDKVSLTCMITDFFPEDITVEWQWNGQPAENYKNTQPIMDTDGSYFVYSKLNVQKSNWEAGNTFTCSVLHEGLHNHHTEKSLSHSPGK
light: not shown
notes: copies: 2 + 2
Consider B4, for which the “relative mFcγRII-binding activity (MB716 = 1)” value in assay [1] stood at 8.9 fold. Moreover, in assay [2], the “relative mFcγRIII-binding activity (MB716 = 1)” value amounted to 17.6 fold. Also, the “relative mFcγRII-binding activity (mIgG1 = 1)” value in assay [3] stood at 38.6 fold. The “relative mFcγRIII-binding activity (mIgG1 = 1)” value in assay [4] worked out at 1.05 fold.
